The values that follow come from patent US20170224836A1 (Novartis, published 2017).

The assay has as its target T1, human CDH6 on cells (human, UniProt P55285 54-790).
T1 sequence: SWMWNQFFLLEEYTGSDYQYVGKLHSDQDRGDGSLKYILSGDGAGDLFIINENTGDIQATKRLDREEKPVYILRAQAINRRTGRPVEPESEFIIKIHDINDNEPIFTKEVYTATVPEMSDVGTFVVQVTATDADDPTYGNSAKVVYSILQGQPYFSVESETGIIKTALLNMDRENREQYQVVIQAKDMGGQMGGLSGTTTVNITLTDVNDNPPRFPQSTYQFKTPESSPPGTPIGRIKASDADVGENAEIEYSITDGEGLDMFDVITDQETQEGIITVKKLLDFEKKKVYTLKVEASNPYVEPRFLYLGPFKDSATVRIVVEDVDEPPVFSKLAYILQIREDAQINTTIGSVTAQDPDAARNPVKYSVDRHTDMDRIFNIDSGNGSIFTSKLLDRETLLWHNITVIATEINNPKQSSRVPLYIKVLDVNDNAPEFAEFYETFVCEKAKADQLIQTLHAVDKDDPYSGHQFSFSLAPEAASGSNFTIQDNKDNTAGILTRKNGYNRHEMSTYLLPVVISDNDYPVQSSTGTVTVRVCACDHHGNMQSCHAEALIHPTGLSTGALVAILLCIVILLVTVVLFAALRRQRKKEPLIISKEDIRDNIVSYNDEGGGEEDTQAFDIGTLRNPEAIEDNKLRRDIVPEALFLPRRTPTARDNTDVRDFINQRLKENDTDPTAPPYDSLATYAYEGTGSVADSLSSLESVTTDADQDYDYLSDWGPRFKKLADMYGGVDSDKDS
Kind of assay: cell-based or functional assay.

B1: NOV0690-SMCC-DM1 (antibody, human IgG1, lambda, V domains shown)
VH: QVQLLESGGGLVQPGGSLRLSCAASGFTFSDHAIDWVRQAPGKGLEWVSVIAGDGSITYYADSVKGRFTISRDNSKNTLYLQMNSLRAEDTAVYYCARDTGVYREYMDVWGQGTLVTVSS
VL: DIELTQPPSVSVSPGQTASITCSGDAIGTKFAHWYQQKPGQAPVLVIYYDHERPSGIPERFSGSNSGNTATLTISGTQAEDEADYYCYSRASSNLVFGGGTKLTVLG
modifications: SMCC-DM1 on primary amines, sites not stated
As for B1, the “percent inhibition at 1.22 nM ADC, JHOS4 cells” value (from here on “percent inhibition … JHOS4 cells”) was found to be 51%; the “percent inhibition at 1.22 nM ADC, KNS42 cells” value (from here on “percent inhibition … KNS42 cells”) amounted to 56.8%; the “percent inhibition at 1.22 nM ADC, NCIH661 cells” value is 14.6%; the “percent inhibition at 1.22 nM ADC, OVCAR3 cells” value amounted to 84.8%. Further, the “percent inhibition at 1.22 nM ADC, SNU8 cells” value (from here on “percent inhibition … SNU8 cells”) amounted to 18.4%.

B2: NOV0672-SMCC-DM1 (antibody, human IgG1, lambda, V domains shown)
VH: QVQLLESGGGLVQPGGSLRLSCAASGFTFNTYGIHWVRQAPGKGLEWVSYIHYSGSSTYYADSVKGRFTISRDNSKNTLYLQMNSLRAEDTAVYYCARHAYGYMDFWGQGTLVTVSS
VL: DIALTQPASVSGSPGQSITISCTGTSSDVGAYNYVSWYQQHPGKAPKLMIYGVSKRPSGVSNRFSGSKSGNTASLTISGLQAEDEADYYCQSYDHLLHVVFGGGTKLTVLG
modifications: SMCC-DM1 on primary amines, sites not stated
Regarding B2, the “percent inhibition … JHOS4 cells” value is -23%; the “percent inhibition … KNS42 cells” value was -12.3%; the “percent inhibition at 1.22 nM ADC, NCIH661 cells” value is -6.14%; the “percent inhibition at 1.22 nM ADC, OVCAR3 cells” value is -16.2%. For the same molecule, the “percent inhibition … SNU8 cells” value was -10.9%.

B3: NOV0691-SMCC-DM1 (antibody, human IgG1, lambda, V domains shown)
VH: QVQLVESGGGLVKPGGSLRLSCAASGFTFSSYALNWVRQAPGKGLEWVGRIKSKTYGGSTDYAAPVKGRFTISRDDSKNTLYLQMNSLKTEDTAVYYCARDRGGYVGFDSWGQGTLVTVSS
VL: DIALTQPASVSGSPGQSITISCTGTSSDVGRYNFVSWYQQHPGKAPKLMIYRVSNRPSGVSNRFSGSKSGNTASLTISGLQAEDEADYYCQSWTTYSNVVFGGGTKLTVLG
modifications: SMCC-DM1 on primary amines, sites not stated
As for B3, the “percent inhibition … JHOS4 cells” value was -14.4%; the “percent inhibition … KNS42 cells” value is -9.23%; the “percent inhibition at 1.22 nM ADC, NCIH661 cells” value was -10.5%; the “percent inhibition at 1.22 nM ADC, OVCAR3 cells” value was -1.5%. For the same molecule, the “percent inhibition … SNU8 cells” value is -2.56%.

B4: NOV0682-SMCC-DM1 (antibody, human IgG1, kappa, V domains shown)
VH: QVQLVESGGGLVKPGGSLRLSCAASGFTFSSYAISWVRQAPGKGLEWVGFIKSNADGYTTNYAAPVKGRFTISRDDSKNTLYLQMNSLKTEDTAVYYCARIRYFRNWDYWGQGTLVTVSS
VL: DIQMTQSPSSLSASVGDRVTITCRASQTINSYLNWYQQKPGKAPKLLIYRASNLQSGVPSRFSGSGSGTDFTLTISSLQPEDFATYYCQQGDSSWTFGQGTKVEIKR
modifications: SMCC-DM1 on primary amines, sites not stated
With B4, the “percent inhibition … JHOS4 cells” value turned out to be 33.9%; the “percent inhibition … KNS42 cells” value is 23.8%; the “percent inhibition at 1.22 nM ADC, NCIH661 cells” value is 16.4%; the “percent inhibition at 1.22 nM ADC, OVCAR3 cells” value was 61.8%. Moreover, the “percent inhibition … SNU8 cells” value amounted to 10.8%.

B5: NOV0670-SMCC-DM1 (antibody, human IgG1, lambda, V domains shown)
VH: QVQLVQSGAEVKKPGSSVKVSCKASGGTFSSYAISWVRQAPGQGLEWMGGIIPIFGTANYAQKFQGRVTITADESTSTAYMELSSLRSEDTAVYYCARKFPGRGPFAYWGQGTLVTVSS
VL: DIVLTQPPSVSGAPGQRVTISCSGSSSNIGSQYVYWYQQLPGTAPKLLIYYNSERPSGMPDRFSGSKSGTSASLAITGLQAEDEADYYCQTWDASSQSFVFGGGTKLTVLG
modifications: SMCC-DM1 on primary amines, sites not stated
Turning to B5, the “percent inhibition … JHOS4 cells” value is -27.9%; the “percent inhibition … KNS42 cells” value was -18.6%; the “percent inhibition at 1.22 nM ADC, NCIH661 cells” value came out at 5.14%; the “percent inhibition at 1.22 nM ADC, OVCAR3 cells” value is -30%. Further, the “percent inhibition … SNU8 cells” value was -15.6%.

B6: NOV0689-SMCC-DM1 (antibody, human IgG1, lambda, V domains shown)
VH: QVQLLESGGGLVQPGGSLRLSCAASGFTFSSFAMNWVRQAPGKGLEWVSVISSSGSNTNYADSVKGRFTISRDNSKNTLYLQMNSLRAEDTAVYYCARPSYFQAMDYWGQGTLVTVSS
VL: DIVLTQPPSVSGAPGQRVTISCSGSSSNIGSNFVSWYQQLPGTAPKLLIYDNSNRPSGVPDRFSGSKSGTSASLAITGLQAEDEADYYCSSYDSFDHSWVFGGGTKLTVLG
modifications: SMCC-DM1 on primary amines, sites not stated
Consider B6, for which the “percent inhibition … JHOS4 cells” value is 3.63%; the “percent inhibition … KNS42 cells” value was -3.11%; the “percent inhibition at 1.22 nM ADC, NCIH661 cells” value is -0.53%; the “percent inhibition at 1.22 nM ADC, OVCAR3 cells” value was determined as 7.21%. Further, the “percent inhibition … SNU8 cells” value came out at 10.3%.

B7: NOV0685-SMCC-DM1 (antibody, human IgG1, lambda, V domains shown)
VH: QVQLQQSGPGLVKPSQTLSLTCAISGDSVSGNSAAWNWIRQSPSRGLEWLGIIYYRSKWYNDYAVSVKSRITINPDTSKNQFSLQLNSVTPEDTAVYYCARSSYSGGFDYWGQGTLVTVSS
VL: DIVLTQPPSVSGAPGQRVTISCSGSSSNIGSYYVSWYQQLPGTAPKLLIYYNTKRPSGVPDRFSGSKSGTSASLAITGLQAEDEADYYCQSWDKLGKGYVFGGGTKLTVLG
modifications: SMCC-DM1 on primary amines, sites not stated
B7: the “percent inhibition … JHOS4 cells” value is -14.7%; the “percent inhibition … KNS42 cells” value is -14.7%; the “percent inhibition at 1.22 nM ADC, NCIH661 cells” value turned out to be 2.08%; the “percent inhibition at 1.22 nM ADC, OVCAR3 cells” value was -20.6%. Moreover, the “percent inhibition … SNU8 cells” value is -0.1%.

B8: NOV0695-SMCC-DM1 (antibody, human IgG1, kappa, V domains shown)
VH: QVQLQQSGPGLVKPSQTLSLTCAISGDSVSSNSAAWNWIRQSPSRGLEWLGRIYYRSKWYNDYAVSVKSRITINPDTSKNQFSLQLNSVTPEDTAVYYCARERSYRDYFDYWGQGTLVTVSS
VL: DIQMTQSPSSLSASVGDRVTITCRASQGIFTYLNWYQQKPGKAPKLLISAASTLQSGVPSRFSGSGSGTDFTLTISSLQPEDFATYYCQQYYSTSLTFGQGTKVEIKR
modifications: SMCC-DM1 on primary amines, sites not stated
Consider B8, for which the “percent inhibition … JHOS4 cells” value is 66.9%; the “percent inhibition … KNS42 cells” value turned out to be 66.3%; the “percent inhibition at 1.22 nM ADC, NCIH661 cells” value was found to be 18.7%; the “percent inhibition at 1.22 nM ADC, OVCAR3 cells” value was 89%. The “percent inhibition … SNU8 cells” value was determined as 21.6%.

B9: NOV0692-SMCC-DM1 (antibody, human IgG1, lambda, V domains shown)
VH: QVQLVESGGGLVKPGGSLRLSCAASGFTFSRYWMDWVRQAPGKGLEWVGRIKSKANGGITDYAAPVKGRFTISRDDSKNTLYLQMNSLKTEDTAVYYCARGMTFLGIWGQGTLVTVSS
VL: DIELTQPPSVSVSPGQTASITCSGDSIGSKYAQWYQQKPGQAPVLVIYYNSERPSGIPERFSGSNSGNTATLTISGTQAEDEADYYCQSWDGQSTIRVFGGGTKLTVLG
modifications: SMCC-DM1 on primary amines, sites not stated
Take B9: the “percent inhibition … JHOS4 cells” value is 62.3%; the “percent inhibition … KNS42 cells” value was 57.3%; the “percent inhibition at 1.22 nM ADC, NCIH661 cells” value worked out at 14.8%; the “percent inhibition at 1.22 nM ADC, OVCAR3 cells” value worked out at 88%. The “percent inhibition … SNU8 cells” value was found to be 15.7%.

B10: NOV0693-SMCC-DM1 (antibody, human IgG1, kappa, V domains shown)
VH: QVQLLESGGGLVQPGGSLRLSCAASGFTFSSYALHWVRQAPGKGLEWVSYIFYDSSSTYYADSVKGRFTISRDNSKNTLYLQMNSLRAEDTAVYYCARFLYSAYGVANWGQGTLVTVSS
VL: DIQMTQSPSSLSASVGDRVTITCRASQSISFYLAWYQQKPGKAPKLLIYGASTLQSGVPSRFSGSGSGTDFTLTISSLQPEDFATYYCHQYSYWLRTFGQGTKVEIKR
modifications: SMCC-DM1 on primary amines, sites not stated
With B10, the “percent inhibition … JHOS4 cells” value came out at 58.1%; the “percent inhibition … KNS42 cells” value came to 15.2%; the “percent inhibition at 1.22 nM ADC, NCIH661 cells” value amounted to 25.9%; the “percent inhibition at 1.22 nM ADC, OVCAR3 cells” value came out at 85.7%. For the same molecule, the “percent inhibition … SNU8 cells” value stood at 35.6%.

B11: NOV0705-SMCC-DM1 (antibody, human IgG1, lambda, V domains shown)
VH: QVQLVQSGAEVKKPGESLKISCKGSGYSFTNYWIGWVRQMPGKGLEWMGFIDPGVSYTRYSPSFQGQVTISADKSISTAYLQWSSLKASDTAMYYCARVLAHSTEYNWPAFWGQGTLVTVSS
VL: DIVLTQPPSVSGAPGQRVTISCSGSSSNIGLDYVNWYQQLPGTAPKLLIYRNKQRPSGVPDRFSGSKSGTSASLAITGLQAEDEADYYCQAWAGRTNYVVFGGGTKLTVLG
modifications: SMCC-DM1 on primary amines, sites not stated
With B11, the “percent inhibition … JHOS4 cells” value worked out at 40.4%; the “percent inhibition … KNS42 cells” value was -13.3%; the “percent inhibition at 1.22 nM ADC, NCIH661 cells” value was -3.15%; the “percent inhibition at 1.22 nM ADC, OVCAR3 cells” value is 68.6%. Besides, the “percent inhibition … SNU8 cells” value stood at 6.4%.

B12: NOV0674-SMCC-DM1 (antibody, human IgG1, lambda, V domains shown)
VH: QVQLLESGGGLVQPGGSLRLSCAASGFTFSSYAMTWVRQAPGKGLEWVSGISGGGSNTYYADSVKGRFTISRDNSKNTLYLQMNSLRAEDTAVYYCARGGGQYFDYWGQGTLVTVSS
VL: DIVLTQPPSVSGAPGQRVTISCSGSSSNIGYNYVSWYQQLPGTAPKLLIYRDNQRPSGVPDRFSGSKSGTSASLAITGLQAEDEADYYCAAWTSGSIGWVFGGGTKLTVLG
modifications: SMCC-DM1 on primary amines, sites not stated
With B12, the “percent inhibition … JHOS4 cells” value was -11.9%; the “percent inhibition … KNS42 cells” value is -6.82%; the “percent inhibition at 1.22 nM ADC, NCIH661 cells” value stood at 3.9%; the “percent inhibition at 1.22 nM ADC, OVCAR3 cells” value was -10.3%. The “percent inhibition … SNU8 cells” value was -1.42%.
